From patent US20150344570A1 (published 2015)

T1: FcγRIIa H (human, UniProt P12318 34-217)
T1 construct: extracellular domain; also called FcγRIIa type H; 2aH
T1 sequence (looked up): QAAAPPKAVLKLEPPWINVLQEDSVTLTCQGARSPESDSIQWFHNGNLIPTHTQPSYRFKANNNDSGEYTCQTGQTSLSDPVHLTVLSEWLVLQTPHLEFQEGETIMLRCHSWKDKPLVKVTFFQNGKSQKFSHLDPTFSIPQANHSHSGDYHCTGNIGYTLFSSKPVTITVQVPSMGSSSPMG

T2: FcγRIIb (human, UniProt P31994 43-217)
T2 construct: extracellular domain; also called 2b; FcgRIIb
T2 sequence (looked up): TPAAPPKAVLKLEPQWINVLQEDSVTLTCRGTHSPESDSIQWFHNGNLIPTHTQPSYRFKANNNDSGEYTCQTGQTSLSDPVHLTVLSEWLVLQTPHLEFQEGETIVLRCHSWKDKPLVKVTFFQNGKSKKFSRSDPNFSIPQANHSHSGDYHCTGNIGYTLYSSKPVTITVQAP


How the values were obtained:
[1] = target: T1, FcγRIIa H; assay: SPR (Biacore), captured antibody, FcγR as analyte; GpH7-A5/GpH7-B3/GpL16-k0 = 100
Procedure: (§1) The heterodimerized antibodies He Abs in which one of the H chains was introduced with an alteration were assayed for their binding activities to each activating FcγR and inhibitory FcγR according to the method described in Example 4. […] The activating FcγRs in FIGS. 26, 27, 28, and 29 are FcγRIa, FcγRIIa (R), FcγRIIa (H), and FcγRIIIa, respectively.
(§2) Analysis of interaction between objective antibody and the FcγR was carried out using Biacore T100 (GE Healthcare). HBS-EP+ (GE Healthcare) was used as the running buffer, and the measurement temperature was set to 25° C. Chips produced by immobilizing the antigen peptide by the amine coupling method to a Series S Sencor Chip CM5 (GE Healthcare), or alternatively, chips produced by allowing preliminarily biotinylated antigen peptides to interact with and immobilize onto a Series S Sensor Chip SA (certified) (GE Healthcare) were used. Antibodies of interest were captured onto an antigen peptide-immobilized chip, and allowed to interact to each FcγR diluted with running buffer. To regenerate and repeatedly use the chip, the antibodies captured on the chip were washed off by reacting 10 mM glycine-HCl, pH 1.5.

[2] = target: T2, FcγRIIb; assay: as above
Procedure: as §1, §2

[3] = target: T1, FcγRIIa H; assay: ratio of He/Con_2aH to He/Con_2b (FcγRIIb); SPR

Row | He/Con_2aH (relative binding) [1] [%] | He/Con_2b (relative binding) [2] [%] | He_2aH/2b (IIaH/IIb ratio) [3] | Binder
1 | 70.4 | 44.7 | 1.57 | GpH7-A5/GpH7-B3 variant E269_15Y/GpL16-k0 (antibody, human IgG1, kappa, Heterodimerized anti-glypican-3 IgG1 (He Ab); mutation in the B3 H chain only; also called He Ab) heavy 1: not shown heavy 2: not shown light: DIVMTQSPLSLPVTPGEPASISCQASESLVHSNRNTYLHWYLQKPGQSPQLLIYKVSNRFSGVPDRFSGSGSGTDFTLKISRVEAEDVGVYYCSQNTHVPPTFGQGTKVEIERTVAAPSVFIFPPSDEQLKSGTASVVCLLNNFYPREAKVQWKVDNALQSGNSQESVTEQDSKDSTYSLSSTLTLSKADYEKHKVYACEVTHQGLSSPVTKSFNRGEC
2 | 92 | 75.7 | 1.22 | GpH7-A5/GpH7-B3 variant Q295_03V/GpL16-k0 (antibody, human IgG1, kappa, Heterodimerized anti-glypican-3 IgG1 (He Ab); mutation in the B3 H chain only; also called He Ab) heavy 1: not shown heavy 2: not shown light: DIVMTQSPLSLPVTPGEPASISCQASESLVHSNRNTYLHWYLQKPGQSPQLLIYKVSNRFSGVPDRFSGSGSGTDFTLKISRVEAEDVGVYYCSQNTHVPPTFGQGTKVEIERTVAAPSVFIFPPSDEQLKSGTASVVCLLNNFYPREAKVQWKVDNALQSGNSQESVTEQDSKDSTYSLSSTLTLSKADYEKHKVYACEVTHQGLSSPVTKSFNRGEC
3 | 89.4 | 70.4 | 1.27 | GpH7-A5/GpH7-B3 variant Q295_11K/GpL16-k0 (antibody, human IgG1, kappa, Heterodimerized anti-glypican-3 IgG1 (He Ab); mutation in the B3 H chain only; also called He Ab) heavy 1: not shown heavy 2: not shown light: DIVMTQSPLSLPVTPGEPASISCQASESLVHSNRNTYLHWYLQKPGQSPQLLIYKVSNRFSGVPDRFSGSGSGTDFTLKISRVEAEDVGVYYCSQNTHVPPTFGQGTKVEIERTVAAPSVFIFPPSDEQLKSGTASVVCLLNNFYPREAKVQWKVDNALQSGNSQESVTEQDSKDSTYSLSSTLTLSKADYEKHKVYACEVTHQGLSSPVTKSFNRGEC
4 | 103 | 67.5 | 1.53 | GpH7-A5/GpH7-B3 variant Q295_05P/GpL16-k0 (antibody, human IgG1, kappa, Heterodimerized anti-glypican-3 IgG1 (He Ab); mutation in the B3 H chain only; also called He Ab) heavy 1: not shown heavy 2: not shown light: DIVMTQSPLSLPVTPGEPASISCQASESLVHSNRNTYLHWYLQKPGQSPQLLIYKVSNRFSGVPDRFSGSGSGTDFTLKISRVEAEDVGVYYCSQNTHVPPTFGQGTKVEIERTVAAPSVFIFPPSDEQLKSGTASVVCLLNNFYPREAKVQWKVDNALQSGNSQESVTEQDSKDSTYSLSSTLTLSKADYEKHKVYACEVTHQGLSSPVTKSFNRGEC
5 | 69.4 | 56.9 | 1.22 | GpH7-A5/GpH7-B3 variant Q295_13S/GpL16-k0 (antibody, human IgG1, kappa, Heterodimerized anti-glypican-3 IgG1 (He Ab); mutation in the B3 H chain only; also called He Ab) heavy 1: not shown heavy 2: not shown light: DIVMTQSPLSLPVTPGEPASISCQASESLVHSNRNTYLHWYLQKPGQSPQLLIYKVSNRFSGVPDRFSGSGSGTDFTLKISRVEAEDVGVYYCSQNTHVPPTFGQGTKVEIERTVAAPSVFIFPPSDEQLKSGTASVVCLLNNFYPREAKVQWKVDNALQSGNSQESVTEQDSKDSTYSLSSTLTLSKADYEKHKVYACEVTHQGLSSPVTKSFNRGEC
6 | 102 | 84.3 | 1.21 | GpH7-A5/GpH7-B3 variant Q295_07I/GpL16-k0 (antibody, human IgG1, kappa, Heterodimerized anti-glypican-3 IgG1 (He Ab); mutation in the B3 H chain only; also called He Ab) heavy 1: not shown heavy 2: not shown light: DIVMTQSPLSLPVTPGEPASISCQASESLVHSNRNTYLHWYLQKPGQSPQLLIYKVSNRFSGVPDRFSGSGSGTDFTLKISRVEAEDVGVYYCSQNTHVPPTFGQGTKVEIERTVAAPSVFIFPPSDEQLKSGTASVVCLLNNFYPREAKVQWKVDNALQSGNSQESVTEQDSKDSTYSLSSTLTLSKADYEKHKVYACEVTHQGLSSPVTKSFNRGEC
7 | 85.1 | 64.5 | 1.32 | GpH7-A5/GpH7-B3 variant S298_03V/GpL16-k0 (antibody, human IgG1, kappa, Heterodimerized anti-glypican-3 IgG1 (He Ab); mutation in the B3 H chain only; also called He Ab) heavy 1: not shown heavy 2: not shown light: DIVMTQSPLSLPVTPGEPASISCQASESLVHSNRNTYLHWYLQKPGQSPQLLIYKVSNRFSGVPDRFSGSGSGTDFTLKISRVEAEDVGVYYCSQNTHVPPTFGQGTKVEIERTVAAPSVFIFPPSDEQLKSGTASVVCLLNNFYPREAKVQWKVDNALQSGNSQESVTEQDSKDSTYSLSSTLTLSKADYEKHKVYACEVTHQGLSSPVTKSFNRGEC

More lines, now with the values behind:

Row | Binder | He/Con_2aH (relative binding) [1] [%] | He/Con_2b (relative binding) [2] [%] | He_2aH/2b (IIaH/IIb ratio) [3]
8 | GpH7-A5/GpH7-B3 variant Q295_20W/GpL16-k0 (antibody, human IgG1, kappa, Heterodimerized anti-glypican-3 IgG1 (He Ab); mutation in the B3 H chain only; also called He Ab) heavy 1: not shown heavy 2: not shown light: DIVMTQSPLSLPVTPGEPASISCQASESLVHSNRNTYLHWYLQKPGQSPQLLIYKVSNRFSGVPDRFSGSGSGTDFTLKISRVEAEDVGVYYCSQNTHVPPTFGQGTKVEIERTVAAPSVFIFPPSDEQLKSGTASVVCLLNNFYPREAKVQWKVDNALQSGNSQESVTEQDSKDSTYSLSSTLTLSKADYEKHKVYACEVTHQGLSSPVTKSFNRGEC | 55.6 | 44.4 | 1.25
9 | GpH7-A5/GpH7-B3 variant E269_16H/GpL16-k0 (antibody, human IgG1, kappa, Heterodimerized anti-glypican-3 IgG1 (He Ab); mutation in the B3 H chain only; also called He Ab) heavy 1: not shown heavy 2: not shown light: DIVMTQSPLSLPVTPGEPASISCQASESLVHSNRNTYLHWYLQKPGQSPQLLIYKVSNRFSGVPDRFSGSGSGTDFTLKISRVEAEDVGVYYCSQNTHVPPTFGQGTKVEIERTVAAPSVFIFPPSDEQLKSGTASVVCLLNNFYPREAKVQWKVDNALQSGNSQESVTEQDSKDSTYSLSSTLTLSKADYEKHKVYACEVTHQGLSSPVTKSFNRGEC | 59 | 38.5 | 1.53
10 | GpH7-A5/GpH7-B3 variant Q295_16H/GpL16-k0 (antibody, human IgG1, kappa, Heterodimerized anti-glypican-3 IgG1 (He Ab); mutation in the B3 H chain only; also called He Ab) heavy 1: not shown heavy 2: not shown light: DIVMTQSPLSLPVTPGEPASISCQASESLVHSNRNTYLHWYLQKPGQSPQLLIYKVSNRFSGVPDRFSGSGSGTDFTLKISRVEAEDVGVYYCSQNTHVPPTFGQGTKVEIERTVAAPSVFIFPPSDEQLKSGTASVVCLLNNFYPREAKVQWKVDNALQSGNSQESVTEQDSKDSTYSLSSTLTLSKADYEKHKVYACEVTHQGLSSPVTKSFNRGEC | 78.6 | 62.7 | 1.25
11 | GpH7-A5/GpH7-B3 variant E269_20W/GpL16-k0 (antibody, human IgG1, kappa, Heterodimerized anti-glypican-3 IgG1 (He Ab); mutation in the B3 H chain only; also called He Ab) heavy 1: not shown heavy 2: not shown light: DIVMTQSPLSLPVTPGEPASISCQASESLVHSNRNTYLHWYLQKPGQSPQLLIYKVSNRFSGVPDRFSGSGSGTDFTLKISRVEAEDVGVYYCSQNTHVPPTFGQGTKVEIERTVAAPSVFIFPPSDEQLKSGTASVVCLLNNFYPREAKVQWKVDNALQSGNSQESVTEQDSKDSTYSLSSTLTLSKADYEKHKVYACEVTHQGLSSPVTKSFNRGEC | 60.9 | 42.5 | 1.43
12 | GpH7-A5/GpH7-B3 variant P271_15Y/GpL16-k0 (antibody, human IgG1, kappa, Heterodimerized anti-glypican-3 IgG1 (He Ab); mutation in the B3 H chain only; also called He Ab) heavy 1: not shown heavy 2: not shown light: DIVMTQSPLSLPVTPGEPASISCQASESLVHSNRNTYLHWYLQKPGQSPQLLIYKVSNRFSGVPDRFSGSGSGTDFTLKISRVEAEDVGVYYCSQNTHVPPTFGQGTKVEIERTVAAPSVFIFPPSDEQLKSGTASVVCLLNNFYPREAKVQWKVDNALQSGNSQESVTEQDSKDSTYSLSSTLTLSKADYEKHKVYACEVTHQGLSSPVTKSFNRGEC | 64.6 | 52.3 | 1.24
13 | GpH7-A5/GpH7-B3 variant E269_19Q/GpL16-k0 (antibody, human IgG1, kappa, Heterodimerized anti-glypican-3 IgG1 (He Ab); mutation in the B3 H chain only; also called He Ab) heavy 1: not shown heavy 2: not shown light: DIVMTQSPLSLPVTPGEPASISCQASESLVHSNRNTYLHWYLQKPGQSPQLLIYKVSNRFSGVPDRFSGSGSGTDFTLKISRVEAEDVGVYYCSQNTHVPPTFGQGTKVEIERTVAAPSVFIFPPSDEQLKSGTASVVCLLNNFYPREAKVQWKVDNALQSGNSQESVTEQDSKDSTYSLSSTLTLSKADYEKHKVYACEVTHQGLSSPVTKSFNRGEC | 80.2 | 44.3 | 1.81
14 | GpH7-A5/GpH7-B3 variant P271_20W/GpL16-k0 (antibody, human IgG1, kappa, Heterodimerized anti-glypican-3 IgG1 (He Ab); mutation in the B3 H chain only; also called He Ab) heavy 1: not shown heavy 2: not shown light: DIVMTQSPLSLPVTPGEPASISCQASESLVHSNRNTYLHWYLQKPGQSPQLLIYKVSNRFSGVPDRFSGSGSGTDFTLKISRVEAEDVGVYYCSQNTHVPPTFGQGTKVEIERTVAAPSVFIFPPSDEQLKSGTASVVCLLNNFYPREAKVQWKVDNALQSGNSQESVTEQDSKDSTYSLSSTLTLSKADYEKHKVYACEVTHQGLSSPVTKSFNRGEC | 77.4 | 58.1 | 1.33
15 | GpH7-A5/GpH7-B3 variant Q295_12R/GpL16-k0 (antibody, human IgG1, kappa, Heterodimerized anti-glypican-3 IgG1 (He Ab); mutation in the B3 H chain only; also called He Ab) heavy 1: not shown heavy 2: not shown light: DIVMTQSPLSLPVTPGEPASISCQASESLVHSNRNTYLHWYLQKPGQSPQLLIYKVSNRFSGVPDRFSGSGSGTDFTLKISRVEAEDVGVYYCSQNTHVPPTFGQGTKVEIERTVAAPSVFIFPPSDEQLKSGTASVVCLLNNFYPREAKVQWKVDNALQSGNSQESVTEQDSKDSTYSLSSTLTLSKADYEKHKVYACEVTHQGLSSPVTKSFNRGEC | 84.1 | 65.2 | 1.29
16 | GpH7-A5/GpH7-B3 variant E269_18N/GpL16-k0 (antibody, human IgG1, kappa, Heterodimerized anti-glypican-3 IgG1 (He Ab); mutation in the B3 H chain only; also called He Ab) heavy 1: not shown heavy 2: not shown light: DIVMTQSPLSLPVTPGEPASISCQASESLVHSNRNTYLHWYLQKPGQSPQLLIYKVSNRFSGVPDRFSGSGSGTDFTLKISRVEAEDVGVYYCSQNTHVPPTFGQGTKVEIERTVAAPSVFIFPPSDEQLKSGTASVVCLLNNFYPREAKVQWKVDNALQSGNSQESVTEQDSKDSTYSLSSTLTLSKADYEKHKVYACEVTHQGLSSPVTKSFNRGEC | 64.4 | 44.8 | 1.44
